In patent US20210032294A1, “MODIFIED PlySs2 LYSINS AND USES THEREOF” (CONTRAFECT CORPORATION, priority 2018, published 2021):
Entries after “also recorded” stand apart in the source; their conditions may differ.

What was measured:
[1] = 7-day repeated 2-hour infusion toxicity study in rats; format: in vivo, Sprague Dawley rats; conditions: rats, 0.5, 2.5, or 10 mg/kg/day, 7 consecutive days
Procedure: The objective of this study was to evaluate the potential toxicity and toxicokinetic profile of modified lysin polypeptide pp296 when administered daily by 2-hour infusion to Sprague Dawley rats for 7 consecutive days.
Experimental procedures, animals and treatment are summarized below in Table 11.
All surviving animals were submitted for necropsy on Day 8 (Terminal Euthanasia). Necropsies were performed and organ weights were collected by Testing Facility personnel. Statistical analysis of organ weight data was performed by the testing facility engaged on a fee-for-service commercial basis. Tissues required for microscopic evaluation were trimmed, processed routinely, embedded in paraffin, and stained with hematoxylin and eosin by Charles River Laboratories Ashland, LLC. Microscopic evaluation was conducted by a board-certified veterinary pathologist on select protocol-specified tissues from all animals in Groups 1 through 4 and all gross lesions from all animals. Tissues were evaluated by light microscopy.

MSSA isolates = assay: MIC in CAMHB-HSD against MSSA isolates; format: cell-based, Staphylococcus aureus; conditions: 51 MSSA isolates
Procedure: In vitro activity of the modified lysin polypeptide pp296 was assessed against a range of 51 MSSA and 51 MRSA isolates in cation-adjusted Mueller Hinton broth supplemented with 25% horse serum and 0.5 mM DTT (CAMHB-HSD) and compared to WT GMP grade PlySs2 (CF-301). CF-301 and pp296 were each diluted into CAMHB-HSD. For each lysin, the dilution series is set up such that, after a two-fold dilution of each well of the plate, the final concentrations contained: 64, 32, 16, 8, 4, 2, 1, 0.5, 0.25, and 0.125 μg/mL. Each lysin was tested in duplicate against each strain. Preparations were incubated overnight. Growth was visualized as a growth button approximately 2 mm in diameter. The highest dilution that yielded ≥80% growth inhibition was called the minimum inhibitory concentration (MIC). The activity of pp296 was very similar, within one 2-fold dilution, to that of CF-301, as shown below in Table 7.

[2] = system: 5 MRSA strains and 5 MSSA strains; assay: Checkerboard synergy assay with daptomycin or vancomycin; format: cell-based, Staphylococcus aureus; conditions: for FIC index: with vancomycin
Procedure: Synergy studies with antibiotics suitable for treatment of Gram-positive bacteria, for example, daptomycin (DAP) and vancomycin (VAN), were performed using a checkerboard assay. Fractional inhibitory concentration (FIC) index values were determined for modified lysin polypeptide pp296 and antibiotic combinations against 5 methicillin-sensitive Staphylococcus aureus (MSSA) and 5 methicillin resistant Staphylococcus aureus (MRSA) isolates. An FIC index value of ≤0.5 may be interpreted as strong synergy between the two agents, while a value between 0.5 and 1 may still be considered a synergistic effect. Given that pp296 has four amino acid replacements in the catalytic domain, the ability of pp296 to synergize with antibiotics was unexpected. […] Qualitatively similar results may be anticipated upon performing similar assays using other de-immunized active variants, such as pp55, pp61, pp65, pp400, and pp619, in accordance with the present disclosure.
In another experiment, the ability of modified lysin polypeptide pp296 to synergize with daptomycin and vancomycin was assessed using a checkerboard analysis. FIC (fractional inhibitory concentration) index values were determined for pp296 and antibiotic combinations against 5 MSSA and 5 MRSA isolates. A total of 50 μl of Mueller-Hinton broth (BBL) was distributed into each well of microdilution plates. The first antibiotic of the combination was serially diluted along the ordinate, while the second drug was diluted along the abscissa. An inoculum equal to a 0.5 McFarland turbidity standard was prepared from each S. aureus isolate in MHB. Each microtiter well was inoculated with 100 μl of a bacterial inoculum of 5×10^5 CFU/ml, and the plates were incubated at 37° C. for 18 h under aerobic conditions. The resulting checkerboard contained each combination of two antibiotics, with wells that contained the highest concentration of each antibiotic at opposite corners. […] To quantify the interactions between the antibiotics being tested, the FIC index (the combination of antibiotics that produced the greatest change from the individual antibiotic's MIC) value was calculated for each strain and antibiotic combination as follows:
(A/MICA)+(B/MICB)=FICA+FICB=FIC index,
Checkerboards were generated using combinations of pp296 with either daptomycin or vancomycin against 5 MRSA strains (MW2, JMI-5675, JMI-4408, JMI-6181, and JMI-6182) and 5 MSSA strains (ATCC 29213, JMI-40979, JMI-43257, JMI-41293, and JMI-49315). Synergy was defined as inhibitory activity greater than what would be predicted by adding the two components together.

bacterial inoculum = assay: Thermal stability: in vitro lytic assay after 30 min heating; format: cell-based
Procedure: Thermal stability was assessed by incubating the lysin polypeptides at a fixed concentration of 128 μg/mL in Tris buffer pH 8.0 for 30 minutes at various elevated temperatures (within the range of about 30° C. to 60° C.) prior to assessing activity. The samples were then cooled for 2 minutes on ice and activity was then assessed by an in vitro lytic assay by exposing a bacterial inoculum (OD600 ˜0.5-1.2) in Tris buffer to a 2-fold dilution series of each sample (diluted from 128-0.25 μg/mL across the x-axis of a 96 well microtiter plate). The loss of optical density was followed for 15 minute at room temperature, and the specific activity was determined based on the enzyme concentration enabling a 50% loss of optical density at 15 minutes. The enzyme activities of each variant were compared to the wild-type, CF-301 enzyme (GMT-grade PlySs2 protein) to calculate the % of Wild-Type Activity over a range of temperatures.
The thermal stability of wild-type, CF-301 was arbitrarily set at 100. The results for exemplary modified lysin polypeptides are set forth below in Table 5 at a single temperature of 37° C.:
In another experiment, the thermal stability of modified lysin polypeptides was assessed at different temperatures and compared with that of wild-type, CF-301 (set at 100).

B1: pp296: Modified PlySs2 lysin, SEQ ID NO: 6: L92W, V104S, V128T, Y137S, Y164K, N184D, S198Q (protein)
chain: MTTVNEALNNVRAQVGSGVSVGNGECYALASWYERMISPDATVGLGAGVGWVSGAIGDTISAKNIGSSYNWQANGWTVSTSGPFKAGQIVTWGATPGNPYGHVSIVEAVDGDRLTILEQNYGGKRYPTRNYYSAASSRQQVVHYITPPGTVAQSAPNLAGSRSKRETGTMTVTVDALNVRRAPDTSGEIVAVYKRGEQFDYDTAIIDVNGYAWVSYIGGSGKRNYVATGATKDGKRFGNAWGTFK
For B1, the Toxicity findings ([1]; 2-hour infusion) was “No toxicity was found; also recorded: no pp296-related gross, microscopic, or organ weight findings”, the Unscheduled deaths [1] was “no unscheduled deaths” and the MIC50 (MSSA isolates) was 1 µg/mL. The MIC90 (MSSA isolates) was 1 µg/mL, the “MIC Range” value (MSSA isolates) was 0.5 to 2 µg/mL and the FIC index values ([2]; with both daptomycin and vancomycin, predominantly) was ~0.5. The FIC index ([2]; MRSA JMI-6182) was 0.375, the FIC index ([2]; MSSA ATCC 29213) was 0.625 and the FIC index ([2]; MSSA strain JMI-40979) was 0.375. For the same molecule, the FIC index ([2]; against 6 of the 10 strains examined) was 0.5, the “% Wild-Type Activity at 37° C.” value (bacterial inoculum; 30 minutes at 37° C., 128 μg/mL in Tris buffer pH 8.0, CF-301 set at 100) was 205% and the “% of CF-301 wild-type, 37° C.” value (bacterial inoculum; 30 minutes at 37° C., another experiment) was 204.6%. The “% of CF-301 wild-type, 40° C.” value (bacterial inoculum; 30 minutes at 40° C.) was 243.1%, the “% of CF-301 wild-type, 42° C.” value (bacterial inoculum; 30 minutes at 42° C.) was 141.2% and the “% of CF-301 wild-type, 45° C.” value (bacterial inoculum; 30 minutes at 45° C.) was 40.1%. For the same molecule, the “% of CF-301 wild-type, 48° C.” value (bacterial inoculum; 30 minutes at 48° C.) was 0.0% and the “% of CF-301 wild-type, 50° C.” value (bacterial inoculum; 30 minutes at 50° C.) was 0.0%.
